The values that follow come from patent publication US20240279618A1, “RECEPTOR TYROSINE KINASE AGONIST, COMPOSITION FOR CELL CULTURE MEDIUM, AND […] MAINTENANCE COMPOSITION” (SEKISUI CHEMICAL CO., LTD., priority 2021, published 2024).

One assay deals with FGFR2-Fc. The assay is described as follows: SPR affinity of VHH (monomer) for FGFR2-Fc. It counts as binding, human. The settings on record: same manner as Example 5. As to the method:
(§1) The binding activity of VHH Clone #1 or VHH Clone #2 immobilized on Series S Sensor Chip CAP (manufactured by Cytiva) with respect to FGFR1-Fc was measured using Biacore (registered trademark) T200 (manufactured by Cytiva). Measurement was performed by CAP Single-cycle Kinetics. The temperature was set to 25° C. As a running buffer, 10 mM HEPES (pH 7.4) (Cytiva) including HBS-EP+(150 mM NaCl, 0.5 mM EDTA, and 0.05% surfactant P20) was used. The measurement order for each run is as follows.
(§2) 2) Measurement of binding activity: The flow rate was set to 30 μL/mL, and VHH Clone #1 or VHH Clone #2 each diluted to 1.85 nM, 5.56 nM, 16.67 nM, or 50 nM, using a running buffer, was allowed to have an association time set to 120 seconds for binding and a dissociation time set to 600 seconds for interaction.
(§3) 3) Regeneration of sensor chip surface: The flow rate was set to 10 μL/mL, a solution in which Reaneration stock 1 and Regeneration stock 2 (manufactured by Cytiva) were mixed at the ratio of 3:1 was added thereto for 120 seconds to extract the immobilized VHH. Next, analysis was performed with a 1:1 binding model using Biacore T200 Evaluation (software version 2.0, manufactured by Cytiva), and the binding activity was calculated.
(§4) The binding activity of VHH Clone #1 to FGFR2-Fc, FGFR3-Fc, or FGFR4-Fc was measured in the same manner as in Example 5.

In the next assay the test system is FGFR3-Fc. The assay is described as follows: SPR affinity of VHH (monomer) for FGFR3-Fc. It counts as binding, human. The settings on record: same manner as Example 5. The procedure:
as §1, §2, §3, §4

The next assay addresses T1, FGFR4-Fc (Homo sapiens, UniProt P22455).
T1 construct: Fc
T1 sequence (P22455 22-369 limits assumed): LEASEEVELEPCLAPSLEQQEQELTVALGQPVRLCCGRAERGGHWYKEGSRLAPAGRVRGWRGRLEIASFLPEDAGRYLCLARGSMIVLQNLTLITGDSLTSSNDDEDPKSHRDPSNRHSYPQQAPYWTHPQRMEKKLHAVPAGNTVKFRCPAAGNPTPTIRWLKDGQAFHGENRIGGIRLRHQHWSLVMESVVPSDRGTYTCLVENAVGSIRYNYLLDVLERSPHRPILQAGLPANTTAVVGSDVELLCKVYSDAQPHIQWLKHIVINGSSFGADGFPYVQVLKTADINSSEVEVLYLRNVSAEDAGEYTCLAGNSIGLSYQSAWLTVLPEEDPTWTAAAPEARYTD
The assay is described as follows: SPR affinity of VHH (monomer) for FGFR4-Fc. It counts as binding. The conditions noted are these: same manner as Example 5. The procedure: as §1, §2, §3, §4

The subject of assay [1] is phospho-p44/42 MAPK (Erk½). Nature of the assay: Agonist activity by Western blotting in NIH3T3 cells. It is filed as cell-based, mouse. The conditions noted are these: VHH 100 nM, 30 minutes. As to the method:
In order to verify the agonist activity for VHH-C(represented by #1_C in the drawing), #1-L4-#1, and #1_Fc, which were obtained in Examples above, the measurement was performed as described below using Western blotting for a change in expression level of Phospho-p44/42 MAPK (Erk½). Furthermore, a basic fibroblast growth factor (bFGF; manufactured by Fujifilm Wako Pure Chemical Corporation) was used as a positive control.
As NIH3T3, those described in Example 7 were used. NIH3T3 cells were seeded on a 6-well plate for cell culture at 2× 10^5 cells/well, and culture was performed overnight (37° C., in a 5% CO2 incubator, with light shielded). After washing with a serum-free medium, bFGF (final concentration: 10 ng/mL) or VHH (final concentration: 100 nM) diluted with the serum-free medium was added thereto, and normal culture was performed for 30 minutes. Thereafter, the well was washed with ice-cooled PBS, and the cells were peeled off with a cell scraper, transferred to a tube, and centrifuged at 300×g for 5 minutes at 4° C. to recover the cells. Thereafter, the cells were solubilized with a phosphatase inhibitor-containing RIPA buffer and left to stand on ice for 30 minutes. After the solubilization reaction, centrifugation was performed at 12,000×g for 15 minutes at 4° C. to recover the supernatant. […]

B1: VHH Clone #1: alpaca-derived VHH single-domain antibody (monomer) binding FGFR1, amino acid sequence SEQ ID NO: 17 (protein)
VHH: QLQLVESGGGSVQAGGSLRLSCAASRSLSRFNVWTWYRQAPVKQRELVASITKSGDTNYAESVKGRFIISRDDDKNTVYLQMNNLKSEDTGIYYCAGSYYSGSYLYPSPGGFSVWGQGTQVTVSS
modifications: VHH_Clone_#1
Turning to B1, the values for the ka with FGFR2-Fc, in the assay on FGFR3-Fc and in the assay with FGFR4-Fc were 484000 M⁻¹ s⁻¹, 232000 M⁻¹ s⁻¹ and 2.37e+06 M⁻¹ s⁻¹, respectively. The kd on FGFR2-Fc was 0.776 s⁻¹; on FGFR3-Fc it was 0.235 s⁻¹; with FGFR4-Fc it was 0.0527 s⁻¹.

B2: #1-L4-#1: dimer of VHH #1 with linker L4 (GSEGKSSGSGSESKST), SEQ ID NO: 23 (protein)
VHH: QLQLVESGGGSVQAGGSLRLSCAASRSLSRFNVWTWYRQAPVKQRELVASITKSGDTNYAESVKGRFIISRDDDKNTVYLQMNNLKSEDTGIYYCAGSYYSGSYLYPSPGGFSVWGQGTQVTVSSGSEGKSSGSGSESKSTQLQLVESGGGSVQAGGSLRLSCAASRSLSRFNVWTWYRQAPVKQRELVASITKSGDTNYAESVKGRFIISRDDDKNTVYLQMNNLKSEDTGIYYCAGSYYSGSYLYPSPGGFSVWGQGTQVTVSS
modifications: #1-L4-#1
As for B2, the “agonist activity (expression of phosphorylated p44/42 MAPK (Erk½))” value in assay [1] is “exhibit an agonist activity”.
